Assay results taken from patent US20180086836A1 (GLENMARK PHARMACEUTICALS S A, published 2018).

Tests used:
[1] = target: T1, recombinant human N-terminal CCR6 Fc (human); assay: SPR, human CCR6 N-terminal peptide Fc on the chip, FAB as analyte
T1 construct: also called human CCR6-Fc; hsCCR6-Nter-Fc

[2] = target: T2, recombinant cynomologus N-terminal CCR6 peptide Fc (cynomolgus monkey; human); assay: SPR, cynomolgus CCR6 N-terminal Fc fusion coupled on the sensor chip, FAB as analyte
T2 construct: It differs from the human construct only in the CCR6 N-terminus; also called Cyno CCR6-Fc; cynoCCR6-Nter-Fc

[3] = target: T1, recombinant human N-terminal CCR6 Fc; assay: SPR, human CCR6 N-terminal Fc fusion coupled on the sensor chip, FAB as analyte
[4] = target: T1, recombinant human N-terminal CCR6 Fc; assay: SPR, FAB as analyte, fusion protein coupled onto the sensor chip
[5] = target: T2, recombinant cynomologus N-terminal CCR6 …; assay: as above

binding result [1] | Kd [2] | Kd [3] | fold improvement in KD value compared to the parental FAB [4] | Kd [5] | fold improvement in affinity compared to the parental VH5/VL1 FAB [5] | Kd [4] | fold improvement in KD value over the first pair of FAB constructs [4] | fold improvement in affinity compared to the parental VH5/VL1 FAB [4] | Binder
binds |  |  |  |  |  |  |  |  | VH5/VL1 L1-N28S FAB (Fab, V domains shown, CDR-L1 deamidation-site variant; copies: 1 + 1) VH: EVQLVESGGGLVQPGGSLRLSCAASGFSFSDYYMYWVRQAPGKGLEWVSYITNGGITYYPDSVKGRFTISRDNSKNTLYLQMNSLRAEDTAVYYCTSPLRGAWFAYWGQGTLVTVSS VL: DVVMTQSPLSLPVTLGQPASISCRSSQSIVHSSGNTYLEWYQQRPGQSPRLLIYKVSNRFSGVPDRFSGSGSGTDFTLKISRVEAEDVGVYYCFQGSHVPLTFGQGTKLEIKR
 | 2.19 nM | 1 nM | ~20 fold |  |  |  |  |  | VH5/VL1-G8-G29A FAB (Fab, V domains shown) VH: EVQLVESGGGLVQPGGSLRLSCAASGFSFSDYYMYWVRQAPGKGLEWVSYITNGGITYYPDSVKGRFTISRDNSKNTLYLQMNSLRAEDTAVYYCTSPLRGAWFAYWGQGTLVTVSS VL: DVVMTQSPLSLPVTLGQPASISCRSSQSIVHSNANTYLEWYQQRPGQSPRLLIYKVSNRFSGVPDRFSGSGSGTDFTLKISRVEAEDVGVYYCFQGTYLPLTFGQGTKLEIK
 | 1.17 nM | 0.526 nM |  | ~1 nM | ~30 fold | ~0.5 nM | 2 fold | ~40 fold | VH5/VL1-B3G8-G29A FAB (Fab, name in Kabat numbering, V domains shown) VH: EVQLVESGGGLVQPGGSLRLSCAASGFSFSDYYMYWVRQAPGKGLEWVSYITTGGRTYYPDSVKGRFTISRDNSKNTLYLQMNSLRAEDTAVYYCTSPLRGAWFAYWGQGTLVTVSS VL: DVVMTQSPLSLPVTLGQPASISCRSSQSIVHSNANTYLEWYQQRPGQSPRLLIYKVSNRFSGVPDRFSGSGSGTDFTLKISRVEAEDVGVYYCFQGTYLPLTFGQGTKLEIK

The remaining lines, values behind:

Binder | binding result [1] | Kd [2] | Kd [3] | fold improvement in KD value compared to the parental FAB [4] | Kd [5] | fold improvement in affinity compared to the parental VH5/VL1 FAB [5] | Kd [4] | fold improvement in KD value over the first pair of FAB constructs [4] | fold improvement in affinity compared to the parental VH5/VL1 FAB [4]
VH5/VL1 L1-N28T FAB (Fab, V domains shown, CDR-L1 deamidation-site variant; copies: 1 + 1) VH: EVQLVESGGGLVQPGGSLRLSCAASGFSFSDYYMYWVRQAPGKGLEWVSYITNGGITYYPDSVKGRFTISRDNSKNTLYLQMNSLRAEDTAVYYCTSPLRGAWFAYWGQGTLVTVSS VL: DVVMTQSPLSLPVTLGQPASISCRSSQSIVHSTGNTYLEWYQQRPGQSPRLLIYKVSNRFSGVPDRFSGSGSGTDFTLKISRVEAEDVGVYYCFQGSHVPLTFGQGTKLEIKR | binds |  |  |  |  |  |  |  | 
VH5/VL1 FAB (parental) (Fab, V domains shown, Human FAB fragment; also called parental FAB; parental VH5/VL1 FAB) VH: EVQLVESGGGLVQPGGSLRLSCAASGFSFSDYYMYWVRQAPGKGLEWVSYITNGGITYYPDSVKGRFTISRDNSKNTLYLQMNSLRAEDTAVYYCTSPLRGAWFAYWGQGTLVTVSS VL: DVVMTQSPLSLPVTLGQPASISCRSSQSIVHSNGNTYLEWYQQRPGQSPRLLIYKVSNRFSGVPDRFSGSGSGTDFTLKISRVEAEDVGVYYCFQGSHVPLTFGQGTKLEIK |  | 33.6 nM |  |  |  |  |  |  | 
VH5/VL1-C9-G29A FAB (Fab, V domains shown) VH: EVQLVESGGGLVQPGGSLRLSCAASGFSFSDYYMYWVRQAPGKGLEWVSYITNGGITYYPDSVKGRFTISRDNSKNTLYLQMNSLRAEDTAVYYCTSPLRGAWFAYWGQGTLVTVSS VL: DVVMTQSPLSLPVTLGQPASISCRSSQSIVHSNANTYLEWYQQRPGQSPRLLIYKVSNRFSGVPDRFSGSGSGTDFTLKISRVEAEDVGVYYCFQGTYYPLTFGQGTKLEIK |  | 2.79 nM | 1.28 nM | ~20 fold |  |  |  |  | 
VH5/VL1-B3C9-G29A FAB (Fab, name in Kabat numbering, V domains shown) VH: EVQLVESGGGLVQPGGSLRLSCAASGFSFSDYYMYWVRQAPGKGLEWVSYITTGGRTYYPDSVKGRFTISRDNSKNTLYLQMNSLRAEDTAVYYCTSPLRGAWFAYWGQGTLVTVSS VL: DVVMTQSPLSLPVTLGQPASISCRSSQSIVHSNANTYLEWYQQRPGQSPRLLIYKVSNRFSGVPDRFSGSGSGTDFTLKISRVEAEDVGVYYCFQGTYYPLTFGQGTKLEIK |  | 1.23 nM | 0.544 nM |  | ~1 nM | ~30 fold | ~0.5 nM | 2 fold | ~40 fold
